The target in one assay is T1, FcγRIIa-R131 (human, UniProt P12318 34-218, limits assumed).
T1 construct: Construct not described
T1 sequence (looked up): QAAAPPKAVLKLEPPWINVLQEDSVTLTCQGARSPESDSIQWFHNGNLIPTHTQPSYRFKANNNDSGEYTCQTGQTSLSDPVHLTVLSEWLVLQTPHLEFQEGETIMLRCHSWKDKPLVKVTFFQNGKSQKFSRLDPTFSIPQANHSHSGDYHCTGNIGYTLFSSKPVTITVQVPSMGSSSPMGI
The assay is described as follows: BLI (ForteBio Octet), %Rmax at 10 µM FcγRIIa-R131 (CD32a-R131 on the sheet). The method, then:
(§1) See Example 8. Antibody names including “-sup” represent supernatants from antibody producing cells, whereas others are purified antibodies. Data are presented as percentages of a maximum receptor binding value for each combination of antibody and receptor, as measured in a ForteBio Octet system. See, e.g., Example 3. Each cluster of three bars represents, from left to right, binding to hCD32a/FcγRIIa-H131 (10 μM) (hatched bars), […] (10 μM) (black bars), and hCD32b/FcγRIIb (1 μM) (white bars).
(§2) Supernatants were obtained from cells expressing these antibodies and assayed for binding to hCD32/FcγRII. Selected purified antibodies without mutations at position 270 were used as controls.

A further assay has as its target T2, FcγRIIb (human, UniProt P31994 43-217, limits assumed).
T2 construct: Construct not described; also called hCD32b/FcγRIIb
T2 sequence (looked up): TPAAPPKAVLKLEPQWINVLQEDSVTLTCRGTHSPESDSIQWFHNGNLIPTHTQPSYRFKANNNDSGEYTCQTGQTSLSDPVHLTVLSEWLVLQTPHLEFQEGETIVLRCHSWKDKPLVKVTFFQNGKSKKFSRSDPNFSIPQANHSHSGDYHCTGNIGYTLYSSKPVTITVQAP
The assay is described as follows: BLI (ForteBio Octet), %Rmax at 1 µM hCD32b/FcγRIIb. The method, then:
as §1, §2
For orientation: In BLI a coated tip is dipped into the sample, and binding shifts an interference pattern.

For assay [1], the target named is T3, recombinant human CD40 monomer (human, UniProt P25942 21-193).
T3 construct: also called huCD40-monomer; soluble human CD40
The assay is described as follows: BLI (Octet RED); antibody supernatant captured on protein A sensors, huCD40-monomer in solution. The source says: The closest matching human germline region sequence was selected for each mouse variable domain, and these human framework regions were used to replace murine frameworks in the “CDR graft” versions of the antibodies. Additional amino acid substitutions, such as framework back-mutations, were then made as necessary to restore the binding affinity of the humanized antibody. Further amino acid substitutions were made to eliminate sequence liabilities. The sequence relationships between the various forms of the antibodies of the present invention are provided at Table 6. The binding of various agonistic anti-huCD40 antibodies to soluble human CD40 was determined by Biolayer Interferometry (BLI) analysis using a Fortebio Octet RED (Rapid system—Extended Detection) label-free interaction analysis instrument. All studies were performed in 10 mM NaₓPO₄, 130 mM NaCl, 0.05% Surfactant P20 (pH 7.1) at 25° C. Briefly, anti-huCD40 antibody supernatants (diluted to 10 μg/ml or captured undiluted if supernatant concentration was less than 10 μg/ml) were captured on protein A coated biosensors (Pall Fortebio #18-5010) using a loading time of 90 s and shake speed of 1000 rpm. Supernatants were first screened for binding to 1 μM recombinant human CD40 monomer (huCD40-monomer) using 180 s association and dissociation times, at 1000 rpm, with two 15 s conditioning steps using 10 mM glycine pH 1.5 in between binding cycles.

Another assay deals with T4, FcγRIIa-H131 (human, UniProt P12318 34-218, limits assumed).
T4 construct: Construct not described; also called hCD32a/FcγRIIa-H131
T4 sequence (looked up): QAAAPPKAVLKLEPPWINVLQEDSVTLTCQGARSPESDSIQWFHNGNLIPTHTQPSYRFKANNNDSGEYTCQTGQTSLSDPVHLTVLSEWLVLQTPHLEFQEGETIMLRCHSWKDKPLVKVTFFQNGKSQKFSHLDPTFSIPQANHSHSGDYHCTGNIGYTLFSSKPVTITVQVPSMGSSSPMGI
The assay is described as follows: BLI (ForteBio Octet), %Rmax at 10 µM hCD32a/FcγRIIa-H131. Here is the method:
as §1, §2

T3 sequence (P25942 21-193 limits assumed): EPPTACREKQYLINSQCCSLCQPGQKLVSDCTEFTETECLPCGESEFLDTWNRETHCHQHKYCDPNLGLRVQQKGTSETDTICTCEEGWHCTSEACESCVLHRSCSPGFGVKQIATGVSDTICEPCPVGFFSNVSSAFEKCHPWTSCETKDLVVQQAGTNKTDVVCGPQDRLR

B1: 5F11-45 V4 D270E (antibody, human IgG1, kappa)
heavy: QVQLVQSGAEVKKPGSSVKVSCKASGYTFTDLSMHWVRQAPGQGLEWMGYITPSSGYTAYNQKFKGKTTLTADKSTSTAYMELSSLRSEDTAVYYCARLILQRGAYWGQGTLVTVSSASTKGPSVFPLAPSSKSTSGGTAALGCLVKDYFPEPVTVSWNSGALTSGVHTFPAVLQSSGLYSLSSVVTVPSSSLGTQTYICNVNHKPSNTKVDKRVEPKSCDKTHTCPPCPAPELLGGDSVFLFPPKPKDTLMISRTPEVTCVVVDVSHEEGEVKFNWYVDGVEVHNAKTKPREEQYNSTYRVVSVLTVLHQDWLNGKEYKCKVSNKALPAPIEKTISKAKGQPREPQVYTLPPSREEMTKNQVSLTCLVKGFYPSDIAVEWESNGQPENNYKTTPPVLDSDGSFFLYSKLTVDKSRWQQGNVFSCSVMHEALHNHYTQKSLSLSPG
light: DIVLTQSPDSLAVSLGERATINCRASKNVDSYGNSFMHWYQQKPGQPPKLLIYRASNLESGVPDRFSGSGSGTDFTLTISSLQAEDVAVYYCQQSNEDPLTFGQGTKLEIKRTVAAPSVFIFPPSDEQLKSGTASVVCLLNNFYPREAKVQWKVDNALQSGNSQESVTEQDSKDSTYSLSSTLTLSKADYEKHKVYACEVTHQGLSSPVTKSFNRGEC
notes: also called 5F11-45 D270E V4
B1: the binding result in the assay with FcγRIIa-R131 and in the assay with FcγRIIb was “binds” throughout.

B2: 5F11-45-V9-DT-sup (antibody, human IgG1, kappa)
heavy chain: QVQLVQSGAEVKKPGSSVKVSCKASGYTFTDLSMHWVRQAPGQGLEWMGYITPSSGYTAYNQKFKGKTTLTADKSTSTAYMELSSLRSEDTAVYYCARLILQRGAYWGQGTLVTVSSASTKGPSVFPLAPSSKSTSGGTAALGCLVKDYFPEPVTVSWNSGALTSGVHTFPAVLQSSGLYSLSSVVTVPSSSLGTQTYICNVNHKPSNTKVDKRVEPKSCDKTHTCPPCPAPELLGDDSVFLFPPKPKDTLMISRTPEVTCVVVDVSHETGEVKFNWYVDGVEVHNAKTKPREEQYNSTYRVVSVLTVLHQDWLNGKEYKCKVSNKALPRPIEKTISKAKGQPREPQVYTLPPSREEMTKNQVSLTCLVKGFYPSDIAVEWESNGQPENNYKTTPPVLDSDGSFFLYSKLTVDKSRWQQGNVFSCSVMHEALHNHYTQKSLSLSPG
light chain: DIVLTQSPDSLAVSLGERATINCRASKNVDSYGNSFMHWYQQKPGQPPKLLIYRASNLESGVPDRFSGSGSGTDFTLTISSLQAEDVAVYYCQQSNEDPLTFGQGTKLEIKRTVAAPSVFIFPPSDEQLKSGTASVVCLLNNFYPREAKVQWKVDNALQSGNSQESVTEQDSKDSTYSLSSTLTLSKADYEKHKVYACEVTHQGLSSPVTKSFNRGEC
notes: Tested as supernatant of antibody-producing cells; also called 5F11-45 V9 D270T
As to B2, the binding result with FcγRIIa-R131 and with FcγRIIb was “binds” in each case.

B3: 8E8-67 (antibody, human IgG1, kappa, V domains shown)
VH: QVQFVQSGAEVKKPGSSVKVSCKASGYTFTSYWMQWVRQAPGQGLEWMGTIYPGDGDSRYNQKFKGKALLTADKSTSTAYMELSSLRSEDTAVYYCARFSLYEGYPYYFDYWGQGTTVTVSS
VL: DIVMTQSPLSLPVTPGEPASISCRSSQSLVHRNANTYLHWYLQKPGQSPQLLIYRVSNRFSGVPDRFSGSGSGTDFTLKISRVEAEDVGVYYCSQSTHFPYTFGGGTKVEIKR
notes: Humanized; IgG1f
The Kd is the constant that tells how readily two partners part at equilibrium. On to B3, for which the Kd in assay [1] stood at 28 nM.

B4: 8E8-70 (antibody, human IgG1, kappa, V domains shown)
VH: QVQFVQSGAEVKKPGSSVKVSCKASGYTFTSYWMQWVRQAPGQGLEWMGTIYPGDSDSRYNQKFKGKALLTADKSTSTAYMELSSLRSEDTAVYYCARFSLYEGYPYYFDYWGQGTTVTVSS
VL: DIVMTQSPLSLPVTPGEPASISCRSSQSLVHRNGNTYLHWYLQKPGQSPQLLIYRVSNRFSGVPDRFSGSGSGTDFTLKISRVEAEDVGVYYCSQSTHFPYTFGGGTKVEIKR
notes: Humanized; IgG1f
B4: in assay [1], the binding result is “binds”.

B5: 8E8-71 (antibody, human IgG1, kappa, V domains shown)
VH: QVQFVQSGAEVKKPGSSVKVSCKASGYTFTSYWMQWVRQAPGQGLEWMGTIYPGDSDSRYNQKFKGKALLTADKSTSTAYMELSSLRSEDTAVYYCARFSLYEGYPYYFDYWGQGTTVTVSS
VL: DIVMTQSPLSLPVTPGEPASISCRSSQSLVHRNANTYLHWYLQKPGQSPQLLIYRVSNRFSGVPDRFSGSGSGTDFTLKISRVEAEDVGVYYCSQSTHFPYTFGGGTKVEIKR
notes: Humanized; IgG1f
On to B5, for which, in assay [1], the binding result is reported as “binds”.

B6: 12D6-24 V9 (antibody, human IgG1, kappa)
heavy: QVQLVQSGAEVKKPGASVKVSCKASGYTFTGYNMNWVRQAPGQGLEWMGNIDPYYGNTNYNQKFKGRVTMTTDTSTSTAYMELRSLRSDDTAVYYCARLGLQLYALDYWGQGTTVTVSSASTKGPSVFPLAPSSKSTSGGTAALGCLVKDYFPEPVTVSWNSGALTSGVHTFPAVLQSSGLYSLSSVVTVPSSSLGTQTYICNVNHKPSNTKVDKRVEPKSCDKTHTCPPCPAPELLGDDSVFLFPPKPKDTLMISRTPEVTCVVVDVSHEDGEVKFNWYVDGVEVHNAKTKPREEQYNSTYRVVSVLTVLHQDWLNGKEYKCKVSNKALPRPIEKTISKAKGQPREPQVYTLPPSREEMTKNQVSLTCLVKGFYPSDIAVEWESNGQPENNYKTTPPVLDSDGSFFLYSKLTVDKSRWQQGNVFSCSVMHEALHNHYTQKSLSLSPG
light: DIVMTQTPLSLPVTPGEPASISCRSSQSLVHSNANTYLHWYLQKPGQSPQLLIYKLTNRFFGVPDRFSGSGSGTDFTLKISRVEAEDVGVYYCSQSIHVPWTFGGGTKVEIKRTVAAPSVFIFPPSDEQLKSGTASVVCLLNNFYPREAKVQWKVDNALQSGNSQESVTEQDSKDSTYSLSSTLTLSKADYEKHKVYACEVTHQGLSSPVTKSFNRGEC
On to B6, for which the binding result with FcγRIIa-R131, with FcγRIIa-H131 and in the assay with FcγRIIb was “binds” throughout.

B7: 12D6-24-V9-DT-sup (antibody)
heavy: QVQLVQSGAEVKKPGASVKVSCKASGYTFTGYNMNWVRQAPGQGLEWMGNIDPYYGNTNYNQKFKGRVTMTTDTSTSTAYMELRSLRSDDTAVYYCARLGLQLYALDYWGQGTTVTVSSASTKGPSVFPLAPSSKSTSGGTAALGCLVKDYFPEPVTVSWNSGALTSGVHTFPAVLQSSGLYSLSSVVTVPSSSLGTQTYICNVNHKPSNTKVDKRVEPKSCDKTHTCPPCPAPELLGDDSVFLFPPKPKDTLMISRTPEVTCVVVDVSHETGEVKFNWYVDGVEVHNAKTKPREEQYNSTYRVVSVLTVLHQDWLNGKEYKCKVSNKALPRPIEKTISKAKGQPREPQVYTLPPSREEMTKNQVSLTCLVKGFYPSDIAVEWESNGQPENNYKTTPPVLDSDGSFFLYSKLTVDKSRWQQGNVFSCSVMHEALHNHYTQKSLSLSPG
light: DIVMTQTPLSLPVTPGEPASISCRSSQSLVHSNANTYLHWYLQKPGQSPQLLIYKLTNRFFGVPDRFSGSGSGTDFTLKISRVEAEDVGVYYCSQSIHVPWTFGGGTKVEIKRTVAAPSVFIFPPSDEQLKSGTASVVCLLNNFYPREAKVQWKVDNALQSGNSQESVTEQDSKDSTYSLSSTLTLSKADYEKHKVYACEVTHQGLSSPVTKSFNRGEC
notes: Tested as supernatant of antibody-producing cells; also called 12D6-24 V9 D270T; copies: 2 + 2
Turning to B7, the binding result in the assay with FcγRIIa-R131 and with FcγRIIb was “binds” in each case.

B8: 12D6-24 V4 D270E (antibody, human IgG1, kappa)
heavy: QVQLVQSGAEVKKPGASVKVSCKASGYTFTGYNMNWVRQAPGQGLEWMGNIDPYYGNTNYNQKFKGRVTMTTDTSTSTAYMELRSLRSDDTAVYYCARLGLQLYALDYWGQGTTVTVSSASTKGPSVFPLAPSSKSTSGGTAALGCLVKDYFPEPVTVSWNSGALTSGVHTFPAVLQSSGLYSLSSVVTVPSSSLGTQTYICNVNHKPSNTKVDKRVEPKSCDKTHTCPPCPAPELLGGDSVFLFPPKPKDTLMISRTPEVTCVVVDVSHEEGEVKFNWYVDGVEVHNAKTKPREEQYNSTYRVVSVLTVLHQDWLNGKEYKCKVSNKALPAPIEKTISKAKGQPREPQVYTLPPSREEMTKNQVSLTCLVKGFYPSDIAVEWESNGQPENNYKTTPPVLDSDGSFFLYSKLTVDKSRWQQGNVFSCSVMHEALHNHYTQKSLSLSPG
light: DIVMTQTPLSLPVTPGEPASISCRSSQSLVHSNANTYLHWYLQKPGQSPQLLIYKLTNRFFGVPDRFSGSGSGTDFTLKISRVEAEDVGVYYCSQSIHVPWTFGGGTKVEIKRTVAAPSVFIFPPSDEQLKSGTASVVCLLNNFYPREAKVQWKVDNALQSGNSQESVTEQDSKDSTYSLSSTLTLSKADYEKHKVYACEVTHQGLSSPVTKSFNRGEC
For the molecule B8, the binding result with FcγRIIa-R131 and with FcγRIIb was “binds” each time.
